Reference: patent US20100266586A1
Blank lines part the entries; values can stand above or below the binder they belong to.

Legend:
[1] = biological target: FVIII in a pool of normal human plasma (human), P00451; assay: cell-based or functional assay
[2] = biological target: full length recombinant FVIII (Recombinate, Baxter), P00451; assay: cell-based or functional assay
full length recombinant FVIII (Recombinate, Baxter), P00451, sequence (P00451 20-2351): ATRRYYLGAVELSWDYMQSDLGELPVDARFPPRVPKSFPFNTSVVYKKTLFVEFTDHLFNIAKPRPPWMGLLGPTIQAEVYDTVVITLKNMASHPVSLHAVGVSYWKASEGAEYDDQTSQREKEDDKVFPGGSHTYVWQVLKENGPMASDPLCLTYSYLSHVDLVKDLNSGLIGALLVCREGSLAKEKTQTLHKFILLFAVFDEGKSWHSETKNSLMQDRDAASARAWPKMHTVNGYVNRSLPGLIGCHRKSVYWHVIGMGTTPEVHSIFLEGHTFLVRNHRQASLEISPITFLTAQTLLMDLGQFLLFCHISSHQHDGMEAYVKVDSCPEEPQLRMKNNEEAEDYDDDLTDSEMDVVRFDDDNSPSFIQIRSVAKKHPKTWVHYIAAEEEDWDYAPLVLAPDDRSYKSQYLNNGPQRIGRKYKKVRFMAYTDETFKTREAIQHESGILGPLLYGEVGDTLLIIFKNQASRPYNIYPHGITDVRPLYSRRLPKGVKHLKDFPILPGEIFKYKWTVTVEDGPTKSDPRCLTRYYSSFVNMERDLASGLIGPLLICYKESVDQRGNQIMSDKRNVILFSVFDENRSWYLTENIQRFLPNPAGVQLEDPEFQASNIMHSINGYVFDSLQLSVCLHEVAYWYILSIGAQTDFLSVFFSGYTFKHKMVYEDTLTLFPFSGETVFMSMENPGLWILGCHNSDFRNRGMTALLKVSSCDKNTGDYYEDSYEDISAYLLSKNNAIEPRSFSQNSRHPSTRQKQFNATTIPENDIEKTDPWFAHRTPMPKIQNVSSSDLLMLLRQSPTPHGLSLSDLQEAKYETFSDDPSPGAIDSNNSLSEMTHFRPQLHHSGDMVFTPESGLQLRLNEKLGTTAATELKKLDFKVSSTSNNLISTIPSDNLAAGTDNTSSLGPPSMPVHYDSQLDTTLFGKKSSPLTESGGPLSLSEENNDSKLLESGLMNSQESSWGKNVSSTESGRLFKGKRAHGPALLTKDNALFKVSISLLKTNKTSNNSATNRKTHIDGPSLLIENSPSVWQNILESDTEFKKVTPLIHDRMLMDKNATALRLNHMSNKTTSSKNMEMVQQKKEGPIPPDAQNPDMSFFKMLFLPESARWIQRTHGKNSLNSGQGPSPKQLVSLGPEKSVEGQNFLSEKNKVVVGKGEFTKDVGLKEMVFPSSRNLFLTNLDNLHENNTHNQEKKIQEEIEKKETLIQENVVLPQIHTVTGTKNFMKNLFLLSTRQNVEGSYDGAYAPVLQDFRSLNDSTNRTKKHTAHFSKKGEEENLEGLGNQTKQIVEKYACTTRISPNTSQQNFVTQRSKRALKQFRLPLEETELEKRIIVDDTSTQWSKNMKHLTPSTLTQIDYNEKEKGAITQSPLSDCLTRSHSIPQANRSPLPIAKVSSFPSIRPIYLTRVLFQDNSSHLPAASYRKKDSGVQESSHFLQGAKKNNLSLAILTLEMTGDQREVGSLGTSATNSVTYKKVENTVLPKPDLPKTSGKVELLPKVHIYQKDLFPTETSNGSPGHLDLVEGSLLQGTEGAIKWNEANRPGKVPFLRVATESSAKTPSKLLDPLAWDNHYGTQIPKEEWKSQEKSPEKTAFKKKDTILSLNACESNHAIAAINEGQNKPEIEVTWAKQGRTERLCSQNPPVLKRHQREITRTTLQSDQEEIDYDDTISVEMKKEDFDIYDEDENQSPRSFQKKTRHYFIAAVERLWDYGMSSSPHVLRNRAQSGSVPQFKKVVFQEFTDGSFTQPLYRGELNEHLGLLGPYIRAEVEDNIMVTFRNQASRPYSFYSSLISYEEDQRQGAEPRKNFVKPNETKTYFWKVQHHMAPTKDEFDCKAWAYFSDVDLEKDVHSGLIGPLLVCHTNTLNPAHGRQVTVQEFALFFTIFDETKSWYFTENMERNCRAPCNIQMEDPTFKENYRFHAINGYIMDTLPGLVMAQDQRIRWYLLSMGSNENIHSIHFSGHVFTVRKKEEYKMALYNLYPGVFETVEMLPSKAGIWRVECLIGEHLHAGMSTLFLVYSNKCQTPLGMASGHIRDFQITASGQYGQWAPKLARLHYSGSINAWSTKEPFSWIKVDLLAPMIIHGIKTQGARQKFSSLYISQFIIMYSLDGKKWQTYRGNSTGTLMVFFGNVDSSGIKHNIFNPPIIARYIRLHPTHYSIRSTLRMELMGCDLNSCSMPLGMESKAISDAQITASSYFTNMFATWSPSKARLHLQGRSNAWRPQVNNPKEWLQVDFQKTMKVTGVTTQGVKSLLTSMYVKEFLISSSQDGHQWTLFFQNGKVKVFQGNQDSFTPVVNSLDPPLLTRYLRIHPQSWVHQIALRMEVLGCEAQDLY

FVIII in a pool of normal human plasma (human), P00451, sequence (P00451 20-2351): as above

inhibition of FVIII activity at a final concentration of RHD5 of 100 microgram/ml (Bethesda assay, plasma) [1]: 97%
inhibition of FVIII activity at a final concentration of RHD5 of 100 microgram/ml (Bethesda assay, full length recombinant FVIII) [2]: 98%
B1: RHD5 (human monoclonal antibody from the lymphoblastoid cell line RHD5) (antibody, V domains shown)
VH: QVQLVQSGAEVKKPGSSVMVSCKASGGTFSSFGISWVRQAPGQGLEWVGGIIPIFGTANTARNFQNRVTITADEFTSTAYIRLRSLRSEDTAVYYCVGGRDAYSFDGFDVWGQGTMVTVSSASTKGPSVFP
VL: SSGLTQPHSVSVSPGQTANITCSRDKLGHKFASWYQQKPGQSPALLIYQDSKRPSGIPERFSGSNSGNTATLTISGTQAMDEADYYCQAWDNTTAVFGGGTKLTVLSQPKAAPSVTLFPPS

inhibition of FVIII activity (chromogenic assay, normal human plasma) [1]: 90%
maximal inhibition of FVIII activity (Bethesda assay, chromogenic FVIII assay) [1]: 90%
B2: Krix-1 (human monoclonal antibody KRIX-1 produced in a human lymphoblastoid cell line, native glycosylation) (antibody, human IgG4, V domains shown)
VH: QVQLVQSGAEVKKPGASVKVSCKTSGYNFTGYSASGHIFTAYSVHWVRQAPGQGLEWMGRINPNSGATDYAHKFQGRVTMSRDTSISTAYMELSRLTSDDTAMYYCARADNYFDIVTGYTSHYFDYWGRGTLVTVSSASTKGPSVF
VL: EIVLTQSPGTLSLSPGERATLSCRASQSVASAYLAWYQQKPGQAPRLLIYGASSRATDIPHRFSGSGSGTDFTLTISRLEPEDFAVYYCQQYGTSALLTFGGGTKVEIKRTVAAPSVFIFPPS
modifications: here or on the partner: N-linked glycosylation site at Asn47-Thr49, native glycan as made by the lymphoblastoid cell line

inhibition of FVIII activity (chromogenic assay, normal human plasma) [1]: 50%
maximal inhibition (plateau inhibition) of FVIII activity (Bethesda assay, chromogenic FVIII assay) [1]: 50%
B3: deglycosylated KRIX-1 (Krix-1 treated with N-glycosidase-F) (antibody, IgG4, V domains shown)
VH: B2 VH
VL: B2 VL
modifications: here or on the partner: N-linked glycan removed by N-glycosidase-F (2 U/ml, 72 h, 37 C)
